Source: US20190367625A1, “AMHRII-BINDING COMPOUNDS FOR PREVENTING OR TREATING CANCERS” (GAMAMABS PHARMA, priority 2017, published 2019)
“Also recorded” adds a separate entry of the source.

Columns and labels:
[1] = test system: HuPrime® HCC xenograft model LI1097; assay: Efficacy study in HuPrime HCC xenograft model LI1097 (tumor volume, TGI, T/C, T-C); assay type: in vivo, BALB/c nude mice; conditions: for Tumor Volume: mean ± SEM; for anti-tumor activity against HCC xenograft (in words): LI1097, compared with sorafenib
Source text: To evaluate preclinically the in vivo efficacy of GamaMabss' anti-AMHR2 monoclonal antibody, named GM102 in the treatment of Huprime® HCC xenograft model LI1097 in Balb/C nude mice. The model LI1097 was selected after a screening for AMHR2 transcription processed by CrownBio, using RNAseq (transcriptome sequencing). Further, AMHR2 membranous protein expression of this model was confirmed by Institut Curie, France, using IHC.
• Strain: BALB/c Nude • Age: 7-8 weeks (Treatment starting) • Gender: female • Total #: 32 mice plus spare
• HuPrime® Liver cancer model L11097 derived from a HCC patient was selected for this efficacy study. This model reached 1000 mm^3 in 20-25 days post inoculation.
• Product identification: GamaMabs's Ab (3C23K) • Manufacturer: GamaMabs Pharma • Lot number: R18H2-LP01 • Batch: 04GAM140513API • Quantity needed: 255 mg based on animal BW of 25 g with 50% spare • Package and storage condition: [30 ml/tube], 30 ml, [2-8° C.] • Concentration: 10.1 g/L • Product identification: Sorafenib • Manufacturer: Melonepharma • Lot number: D1111A • Quantity needed: 300 mg based on animal BW of 25 g with 50% spare • Package and storage condition: 400 mg, [RT]
Tumor fragments from stock mice inoculated with selected primary human cancer tissues were harvested and used for inoculation into BALB/c nude mice. Each mouse was inoculated subcutaneously at the right flank with primary human HCC model LI1097 fragment (R12P4, 2-4 mm in diameter) for tumor development on Jun. 9, 2015. The parent mouse number was #80150. #80151 and #80153. The mice were grouped when the average tumor size reached about 145 mm^3 on Jun. 24, 2015. Mice were allocated randomly into 4 experimental groups according to their tumor sizes. Each group consisted of 8 mice, 4 mice per cage. The day was denoted as day 0. The test articles were administered to the tumor-bearing mice from day 0 (Jun. 24, 2015) through day 27 (Jul. 21, 2015) according to pre-determined regimen shown in Section 1.1 Experimental Design.
Tumor size were measured twice weekly in two dimensions using a caliper, and the volume is expressed in mm^3 using the formula: TV=0.5 a×b^2, where a and b are the long and short diameters of the tumor, respectively. The tumor size is then used for calculations of TGI, T/C, and T-C values according to the description in the Table 2 in Abbreviations.
The study was ended after 28 days treatment and mice were sacrificed.
Summary statistics, including mean and the standard error of the mean (SEM), are provided for the tumor volume of each group at each time point. Statistical analysis of difference in tumor volume among the groups was evaluated using a one-way ANOVA followed by multiple comparisons using Games-Howell. All data were analyzed using SPSS 16.0. P<0.05 was considered to be statistically significant.

[2] = Body weight and tolerability in LI1097 tumor-bearing mice; assay type: in vivo; conditions: for body weight loss observed in treated mice: mean; for tolerability / toxic events (in words): LI1097 tumor-bearing mice, antibody 20 and 50 mg/kg i.v., sorafenib 50 mg/kg p.o.
Experimental: When individual mouse has a body weight loss ≥20%, the mouse will be given dosing holiday(s) until its body weight recovers to the baseline.
All the procedures related to animal handling, care, and the treatment in this study were performed according to guidelines approved by the Institutional Animal Care and Use Committee (IACUC) of CrownBio following the guidance of the Association for Assessment and Accreditation of Laboratory Animal Care (AAALAC). At the time of routine monitoring, the animals were checked for any effects of tumor growth on normal behavior such as mobility, food and water consumption (by looking only), body weight gain/loss, eye/hair matting and any other abnormal effect. Death and observed clinical signs were recorded on the basis of the numbers of animals within each subset.
Under following conditions, the in-life experiment of individual animal or whole groups will be terminated, by humane euthanization, prior to death, or before reaching a comatose state. • In a continuing deteriorating condition with severe clinical signs of severe distress and/or pain, inaccessible to adequate food or water; • Significant body mass (emaciated) (>20%); • Individual mouse with tumor size exceeding 3000 mm^3 or MTV>2000 mm^3.

[3] = biological target: T1, AMHRII (form used for the Kd not stated) (human, UniProt Q16671 18-149, limits assumed)
T1 construct: Neither the construct nor the assay behind the Kd is described
T1 sequence (Q16671 18-149 limits assumed): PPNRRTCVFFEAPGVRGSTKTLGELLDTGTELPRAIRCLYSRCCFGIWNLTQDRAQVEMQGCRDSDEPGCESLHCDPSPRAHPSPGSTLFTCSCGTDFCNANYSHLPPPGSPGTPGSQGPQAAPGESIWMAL

[4] = test system: Champions TumorGraft® model CTG-0401 (human colorectal cancer); assay: Efficacy study in model CTG-0401 of human colorectal cancer; assay type: in vivo, Athymic Nude-Foxn1nu mice; conditions: 20 mg/kg IP BIWx4; comparator Irinotecan 100 mg/kg IP Q7Dx3; listed as GM102
Experimental: Stock mice (Athymic Nude-Foxn1^nu from Envigo) were implanted with tumor fragments from Champions TumorGraft® model CTG-0401. After the tumors reached 1000-1500 mm^3, they were harvested and the tumor fragments were implanted SC in the left flank of the female study mice. Each animal was implanted with a specific passage lot: passage 6 for CTG-0401. Tumor growth was monitored twice a week using digital calipers and the tumor volume (TV) was calculated using the formula (0.52×[length×width^2]). After the tumor volume reached 175±7 mm^3, mice were selected based on their tumor size and were randomly allocated into 4 groups of 12 animals per group (Day 0). After the initiation of dosing on Day 0, animals were weighed twice per week using a digital scale and TV was measured twice per week and also on the final day of study. The study was terminated when the mean tumor volume in the vehicle control group reached 1500 mm^3 or up to Day 60, whichever occurred first.

[5] = 50 mg/kg, QD × 4 weeks, p.o., day 13
[6] = 20 mg/kg, BIW × 4 weeks, i.v., day 13
[7] = 50 mg/kg, BIW × 4 weeks, i.v., day 13

In the case of `CNC(=O)c1cc(Oc2ccc(NC(=O)Nc3ccc(Cl)c(C(F)(F)F)c3)cc2)ccn1` [Sorafenib, reference compound], the “T-C (days) at 1000 mm^3” value ([1]; 50 mg/kg, QD × 4 weeks, p.o.) is reported as 8 days, the “Tumor Volume” value ([1]; 50 mg/kg, QD × 4 weeks, p.o., day 0) is reported as 145.18 ± 16.97 mm^3 and the “Tumor Volume” value ([1]; 50 mg/kg, QD × 4 weeks, p.o., day 2) is reported as 321.35 ± 45.66 mm^3. The “Tumor Volume” value ([1]; 50 mg/kg, QD × 4 weeks, p.o., day 6) was 493.84 ± 65.13 mm^3, the “Tumor Volume” value ([1]; 50 mg/kg, QD × 4 weeks, p.o., day 9) was 695.20 ± 66.81 mm^3 and the “T/C (%)” value [1, 5] was 35.1%. For the same molecule, the “TGI (%)” value [1, 5] was 64.9%, the “Tumor Volume” value [1, 5] was 891.50 ± 103.33 mm^3 and the “Tumor Volume” value ([1]; 50 mg/kg, QD × 4 weeks, p.o., day 16) was 1135.40 ± 133.62 mm^3. The “Tumor Volume” value ([1]; 50 mg/kg, QD × 4 weeks, p.o., day 20) was 1478.84 ± 189.62 mm^3, the “Tumor Volume” value ([1]; 50 mg/kg, QD × 4 weeks, p.o., day 23) was 1627.4 ± 202.91 mm^3 and the “Tumor Volume” value ([1]; 50 mg/kg, QD × 4 weeks, p.o., day 27) was 1829.66 ± 256.4 mm^3. The “body weight change at study termination” value ([2]; 50 mg/kg, QD × 4 weeks, p.o.) was −7.63%, the “mean maximum body weight loss” value ([2]; 50 mg/kg, QD × 4 weeks, p.o., day 27 of treatment) was 7.63% and the “body weight loss observed in treated mice” value ([2]; 50 mg/kg, QD × 4 weeks, p.o.) was 7%. For the same molecule, the “body weight loss observed in treated mice” value ([2]; 50 mg/kg, QD × 4 weeks, p.o., listed as sorafenib) was “up to 7%”.

B1: 3C23K anti-AMHRII monoclonal antibody (antibody, human IgG1, kappa, V domains shown)
VH: QVRLVQSGAEVKKPGASVKVSCKASGYTFTSYHIHWVRQAPGQRLEWMGWIYPGDDSTKYSQKFQGRVTITRDTSASTAYMELSSLRSEDTAVYYCTRGDRFAYWGQGTLVTVSS
VL: DIQMTQSPSTLSASVGDRVTITCRASSSVRYIAWYQQKPGKAPKLLTYPTSSLKSGVPSRFSGSGSGTEFTLTISSLQPDDFATYYCLQWSSYPWTFGGGTKVEIKR
notes: Humanized antibody; also called GM102; GamaMabs's Ab
With B1 the Kd [3] was 0.0553 nM.

B2: 3C23K: humanized anti-AMHRII monoclonal antibody; VH SEQ ID NO 19, VL SEQ ID NO 36 (antibody, V domains shown)
VH: QVRLVQSGAEVKKPGASVKVSCKASGYTFTSYHIHWVRQAPGQRLEWMGWIYPGDDSTKYSQKFQGRVTITRDTSASTAYMELSSLRSEDTAVYYCTRGDRFAYWGQGTLVTVSS
VL: DIQMTQSPSTLSASVGDRVTITCRASSSVRYIAWYQQKPGKAPKLLTYPTSSLKSGVPSRFSGSGSGTEFTLTISSLQPDDFATYYCLQWSSYPWTFGGGTKVEIK
modifications: Synthetic 3C23K/3C23; Synthetic 3C23K
In the case of B2, the “T-C (days) at 1000 mm^3” value ([1]; 20 mg/kg, BIW × 4 weeks, i.v.) is reported as 3 days, the “Tumor Volume” value ([1]; 20 mg/kg, BIW × 4 weeks, i.v., day 0) is reported as 145.15 ± 16.79 mm^3 and the “Tumor Volume” value ([1]; 20 mg/kg, BIW × 4 weeks, i.v., day 2) is reported as 358.57 ± 51.86 mm^3. The “Tumor Volume” value ([1]; 20 mg/kg, BIW × 4 weeks, i.v., day 6) was 665.09 ± 85.00 mm^3, the “Tumor Volume” value ([1]; 20 mg/kg, BIW × 4 weeks, i.v., day 9) was 952.12 ± 171.45 mm^3 and the “T/C (%)” value [1, 6] was 48.7%. For the same molecule, the “TGI (%)” value ([1]; 20 mg/kg, BIW × 4 weeks, i.v., day 13, listed as GamaMabs's Ab) was 51.3%, the “Tumor Volume” value [1, 6] was 1179.90 ± 232.26 mm^3 and the “Tumor Volume” value ([1]; 20 mg/kg, BIW × 4 weeks, i.v., day 16) was 1479.51 ± 292.49 mm^3. The “Tumor Volume” value ([1]; 20 mg/kg, BIW × 4 weeks, i.v., day 20) was 1973.13 ± 372.07 mm^3, the “Tumor Volume” value ([1]; 20 mg/kg, BIW × 4 weeks, i.v., day 23) was 1814.59 ± 231.17 mm^3 and the “Tumor Volume” value ([1]; 20 mg/kg, BIW × 4 weeks, i.v., day 27) was 2081.67 ± 213.28 mm^3. For the same molecule, the “T-C (days) at 1000 mm^3” value ([1]; 50 mg/kg, BIW × 4 weeks, i.v.) was 5 days, the “Tumor Volume” value ([1]; 50 mg/kg, BIW × 4 weeks, i.v., day 0) was 145.24 ± 16.38 mm^3 and the “Tumor Volume” value ([1]; 50 mg/kg, BIW × 4 weeks, i.v., day 2) was 297.78 ± 46.32 mm^3. For the same molecule, the “Tumor Volume” value ([1]; 50 mg/kg, BIW × 4 weeks, i.v., day 6) was 532.71 ± 104.17 mm^3, the “Tumor Volume” value ([1]; 50 mg/kg, BIW × 4 weeks, i.v., day 9) was 751.81 ± 176.15 mm^3 and the “T/C (%)” value [1, 7] was 45.7%. For the same molecule, the “TGI (%)” value ([1]; 50 mg/kg, BIW × 4 weeks, i.v., day 13, listed as GamaMabs's Ab) was 54.3%, the “Tumor Volume” value [1, 7] was 1117.12 ± 302.85 mm^3 and the “Tumor Volume” value ([1]; 50 mg/kg, BIW × 4 weeks, i.v., day 16) was 1476.74 ± 407.93 mm^3. For the same molecule, the “Tumor Volume” value ([1]; 50 mg/kg, BIW × 4 weeks, i.v., day 20) was 1602.61 ± 481.85 mm^3, the “Tumor Volume” value ([1]; 50 mg/kg, BIW × 4 weeks, i.v., day 23) was 1148.22 ± 381.49 mm^3 and the “Tumor Volume” value ([1]; 50 mg/kg, BIW × 4 weeks, i.v., day 27) was 1454.47 ± 479.27 mm^3. The “anti-tumor activity against HCC xenograft (in words)” value [1] was “of the same order of magnitude as sorafenib”, the “anti-tumor activity against HCC xenograft (in words)” value ([1]; listed as GamaMabs's Ab) was “close to that induced by sorafenib” and the “body weight change at study termination” value ([2]; 20 mg/kg, BIW × 4 weeks, i.v.) was 2.68%. The “body weight change at study termination” value ([2]; 50 mg/kg, BIW × 4 weeks, i.v.) was -0.38%, the “tolerability / toxic events (in words)” value [2] was “no detectable toxic event” and the “tolerability / toxic events (in words)” value ([2]; listed as GM102) was “not accompanied by any toxic event”. For the same molecule, the “tolerability / toxic events (in words)” value ([2]; listed as GamaMabs's Ab) was “No animal death or significant body weight loss; also recorded: well tolerated” and the “in vivo anti-tumor effect against AMHRII-expressing human colorectal tumor (in words, FIG. 10)” value [4] was “efficient in vivo anti-tumor effect; also recorded: indistinguishable from the anti-tumor effect of the mainly used anti-colon cancer molecule Irinotecan”.
